The target of one assay is T1, PsaB RC subunit of PSI (Synechocystis sp. PCC 6803, UniProt P29255 1-731).
T1 construct: PsaB of Synechocystis sp; PCC 6803; source: endogenous, Synechocystis sp; PCC 6803 strain His-D2/ΔCP47; co-purified with His-tagged D2 (Ni-NTA, sucrose gradient)
The experiment in a line: cryo-EM structure; RCII/PSI complex co-purified from Synechocystis via His-tagged D2; 0.1% FOM; two classes at 3.2 Å and 3.1 Å, PSI-focused map at 2.9 Å. The settings on record: both partners purified.

A further assay concerns the target T2, PsaI subunit of PSI (Synechocystis sp. PCC 6803, UniProt Q55330 1-40).
T2 construct: PsaI of Synechocystis sp; PCC 6803; source: endogenous, Synechocystis sp; PCC 6803 strain His-D2/ΔCP47; co-purified with His-tagged D2 (Ni-NTA, sucrose gradient)
T2 chain (looked up): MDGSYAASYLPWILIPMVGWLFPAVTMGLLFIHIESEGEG
The assay is described as above. The settings on record: both partners purified.

T1 sequence (P29255 whole entry): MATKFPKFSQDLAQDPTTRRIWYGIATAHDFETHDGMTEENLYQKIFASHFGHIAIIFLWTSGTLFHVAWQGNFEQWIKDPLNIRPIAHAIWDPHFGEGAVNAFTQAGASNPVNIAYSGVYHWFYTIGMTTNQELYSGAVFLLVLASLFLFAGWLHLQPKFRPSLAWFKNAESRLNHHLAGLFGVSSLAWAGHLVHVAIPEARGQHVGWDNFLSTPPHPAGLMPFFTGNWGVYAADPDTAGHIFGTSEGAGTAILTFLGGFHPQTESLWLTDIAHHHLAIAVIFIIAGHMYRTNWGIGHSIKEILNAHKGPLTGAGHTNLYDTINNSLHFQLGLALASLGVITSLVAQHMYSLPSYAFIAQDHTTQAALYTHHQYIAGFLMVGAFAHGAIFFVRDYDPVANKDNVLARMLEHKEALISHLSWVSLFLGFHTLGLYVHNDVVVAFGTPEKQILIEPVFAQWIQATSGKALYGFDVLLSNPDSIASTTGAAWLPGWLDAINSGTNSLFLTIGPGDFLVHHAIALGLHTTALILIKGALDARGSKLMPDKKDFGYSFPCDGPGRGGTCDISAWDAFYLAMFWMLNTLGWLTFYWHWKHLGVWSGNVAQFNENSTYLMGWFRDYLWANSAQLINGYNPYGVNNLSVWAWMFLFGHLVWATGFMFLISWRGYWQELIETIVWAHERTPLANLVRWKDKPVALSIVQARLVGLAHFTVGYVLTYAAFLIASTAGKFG

B1: PsbI subunit of PSII (natural protein)
chain: not shown
notes: PsbI of Synechocystis sp; PCC 6803; source: endogenous, Synechocystis sp; PCC 6803 strain His-D2/ΔCP47; co-purified with His-tagged D2 (Ni-NTA, sucrose gradient)
Consider B1, for which the binding result with PsaB RC subunit of PSI was “binds”.

B2: PsbF, beta subunit of Cyt b-559 (natural protein)
chain: not shown
notes: PsbF (cytochrome b-559 beta subunit) of Synechocystis sp; PCC 6803; source: endogenous, Synechocystis sp; PCC 6803 strain His-D2/ΔCP47; co-purified with His-tagged D2 (Ni-NTA, sucrose gradient)
B2: in the assay with PsaI subunit of PSI, the binding result is “binds”.
